Data published in the supplement of paper PMC12042874.
± gives the uncertainty stated by the source.

Assay: amyloid nucleation score (Sup35N fusion, yeast selection) (log enrichment); library NNK1; higher = more nucleation; inactive = no reads after selection
Outline: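 Sup35N fusions to peptides of 20 random codons were expressed in psi-negative yeast, induced 24 hours with 100 μM copper sulfate, and grown 7 days at 30°C on medium lacking adenine and uracil. Input and output plasmid inserts were sequenced by Illumina. The nucleation score is the DiMSum log enrichment of output over input reads, centred on the mode score of non-aggregating sequences. Sequences with under 100 input reads were excluded.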
In the case of PSMEWWGL, the amyloid nucleation score is reported as 0.158 ± 0.88.
Substance FMVLDQFIE has an amyloid nucleation score of 0.383 ± 0.95.
ERYRFRGIKLHRGDSWRDIC gave an amyloid nucleation score of 1.14 ± 0.71.
With VMGIDSFTYAG the amyloid nucleation score was -0.315 ± 0.54.
KVLILCAT gave an amyloid nucleation score of 1.1 ± 0.62.
Substance SVMDCSFFVLPLCFGCDQKF has an amyloid nucleation score of -0.987 ± 0.46.
Substance YIHDQIIALFKQDLFSGSLH has an amyloid nucleation score of 0.961 ± 0.69.
For SLFLGVVHFAVRVSLGSVWG, the amyloid nucleation score was -0.771 ± 0.82.
LSERYVSTGVARDSGNAKVG showed an amyloid nucleation score of 3.88 ± 0.11.
Work on CFSDKS yielded an amyloid nucleation score of -0.621 ± 0.42.
With EVPMVFRGNEGVSRDCSLVG the amyloid nucleation score was -0.469 ± 0.42.
Work on VHKDFHANANRVSWQLAL yielded an amyloid nucleation score of -0.243 ± 0.73.
FLKLPFTKSSWSF gave an amyloid nucleation score of -0.317 ± 1.4.
Substance STNFLWTTFGFFHVCLDGAM has an amyloid nucleation score of -0.218 ± 0.92.
In the case of VSPSIRMGNQGSSFSVLNAL, the amyloid nucleation score is reported as 0.149 ± 0.55.
For NTGREVFIRIMCPL, the amyloid nucleation score was -0.212 ± 0.73.
Substance YMGHDC has an amyloid nucleation score of 0.011 ± 0.21.
FGLYFRKISGLSPN showed an amyloid nucleation score of -0.211 ± 0.67.
Work on VVDVSYRNLRRCM yielded an amyloid nucleation score of 0.8 ± 0.36.
In the case of ICSNVLFVLILEKEASFGCY, the amyloid nucleation score is reported as 4.21 ± 0.051.
Substance RRFPRMWGLCMSLFRSHCGS has an amyloid nucleation score of 1.92 ± 0.27.
FKTRSRNRLVCCYEESRTDL showed an amyloid nucleation score of 0.536 ± 0.34.
In the case of QWSDS, the amyloid nucleation score is reported as -0.267 ± 0.41.
For CEMKASGLKYVHRFNSIPVM, the amyloid nucleation score was 0.984 ± 0.57.
Substance HKFSNELLL has an amyloid nucleation score of -0.145 ± 0.76.
Substance TLSISTMIAAVGTLSVCGDM has an amyloid nucleation score of 0.768 ± 0.16.
With RSFDLRSSTTLERLFFHMCA the amyloid nucleation score was -0.493 ± 0.88.
In the case of LWERGKCHEACVVPAKKEGT, the amyloid nucleation score is reported as 0.039 ± 0.51.
Work on TYILVFSVIYPSLKYECFCQ yielded an amyloid nucleation score of 1.6 ± 0.61.
VNKLLS gave an amyloid nucleation score of -0.04 ± 0.28.
SCLAIRTSYCNEELSIESMQ showed an amyloid nucleation score of -0.8 ± 0.55.
In the case of CDGDASAYDTRGTALSA, the amyloid nucleation score is reported as “inactive”.
For DIPYVFLLFLQECDNVFLCH, the amyloid nucleation score was 2.54 ± 0.17.
For VWRTYVGPVCSMLAG, the amyloid nucleation score was 0.641 ± 0.32.
In the case of YLRLKKMSVGVWGVIDRCLV, the amyloid nucleation score is reported as 0.995 ± 0.51.
GTLGSWSIIISLIRHSECLC gave an amyloid nucleation score of -0.659 ± 0.46.
TCCVKCGCRVQRMMMCLV gave an amyloid nucleation score of -0.003 ± 0.8.
Substance SSFQGPSYSSCIRQHRNTRI has an amyloid nucleation score of -0.614 ± 0.67.
HDSLKFVKQSFFCPEVYIPG gave an amyloid nucleation score of -0.596 ± 0.47.
Work on SKSFGFEYPG yielded an amyloid nucleation score of -0.002 ± 0.37.
In the case of CLPQLTDQPPKFHRLQFFCV, the amyloid nucleation score is reported as 0.348 ± 0.4.
For MHGISQPWHKLTMTGIRLAW, the amyloid nucleation score was -0.463 ± 0.51.
In the case of SETFKRE, the amyloid nucleation score is reported as -0.328 ± 0.66.
With GLGCYVKNKTHESYARSTAH the amyloid nucleation score was -0.671 ± 0.56.
Work on ANTLRKMNLLSELVLNLLTG yielded an amyloid nucleation score of 3.3 ± 0.14.
For HIFHCGNRRFHTIKM, the amyloid nucleation score was “inactive”.
With TLSIFVLRIGARYNMLSLIQ the amyloid nucleation score was 0.095 ± 0.59.
For VSIRFSCRRIYNFLVEFPLG, the amyloid nucleation score was -0.102 ± 0.19.
For TKIHLPYCYANLVNHSVQHK, the amyloid nucleation score was 0.704 ± 0.61.
For DLRFCNASYVLWISDFAHAV, the amyloid nucleation score was -0.08 ± 0.41.
Work on ANSVQG yielded an amyloid nucleation score of 0.9 ± 0.73.
Work on RTSSIMSFPQCSCYSRRGVL yielded an amyloid nucleation score of 1.73 ± 0.33.
In the case of PQRQFDLIVD, the amyloid nucleation score is reported as 0.563 ± 0.81.
For SDRQVSSSRTYKHSTTSLGC, the amyloid nucleation score was “inactive”.
In the case of IMFLRLFKGLCMKYSVRRDC, the amyloid nucleation score is reported as -0.512 ± 0.4.
In the case of FLTFKMN, the amyloid nucleation score is reported as “inactive”.
For GVVFPWSVLMFSCSSCLAVP, the amyloid nucleation score was 0.605 ± 0.61.
DYRGYFKSDIYSNFLTFLPG gave an amyloid nucleation score of -0.663 ± 0.22.
In the case of MMVRGMW, the amyloid nucleation score is reported as 1.34 ± 0.35.
Substance NALILRGLVCLSWKLELTHF has an amyloid nucleation score of -0.866 ± 1.9.
Substance VVCGIPVFNLRYL has an amyloid nucleation score of -0.495 ± 0.42.
With FNVHNWAQRTVEHGETLFRD the amyloid nucleation score was 1.57 ± 0.45.
For VVYDGIMSWIYYCRFVVDAV, the amyloid nucleation score was “inactive”.
Substance VDVANGLADVYLLQ has an amyloid nucleation score of -0.009 ± 0.57.
Work on FAMTNFRYDLPQTHPLPRAV yielded an amyloid nucleation score of -0.679 ± 0.54.
Substance TYIFVIPHLVRSTDWTLFAE has an amyloid nucleation score of 0.017 ± 0.33.
For TLFMRVGYR, the amyloid nucleation score was 3.87 ± 0.12.
KNLVWMDRVQFRLSWAHVRL showed an amyloid nucleation score of -1.38 ± 2.4.
With ESRKYWVNMVIGQDDRLVHP the amyloid nucleation score was “inactive”.
NPVRMMRNRLVLGKNCAPRG showed an amyloid nucleation score of -0.024 ± 0.28.
Work on PKFAHILTHGVSHMQWTVVK yielded an amyloid nucleation score of 0.06 ± 0.35.
With LYLMGVRVMGNSICTLVRRL the amyloid nucleation score was “inactive”.
For HFCKYSQNIELRQALGCYFW, the amyloid nucleation score was 6.16 ± 0.065.
MADEWLCQKCGSRVT showed an amyloid nucleation score of -0.207 ± 0.59.
TWDFSFDQGIKY showed an amyloid nucleation score of -0.125 ± 0.32.
Substance FKRLNRFYRSLAIMTSTSHL has an amyloid nucleation score of -0.149 ± 0.69.
LKWWWIQNAGCTVVIMVL gave an amyloid nucleation score of -0.701 ± 0.54.
ISCSVKILRCLTCMLFSSVV gave an amyloid nucleation score of -0.8 ± 1.3.
With SVSRYDFEVGVMGHKCCITT the amyloid nucleation score was -0.359 ± 0.42.
Work on RKLFYG yielded an amyloid nucleation score of -0.017 ± 0.39.
Substance NWTIHVDNSGHVIRINTHYW has an amyloid nucleation score of 6.72 ± 0.074.
IDVRI gave an amyloid nucleation score of -0.152 ± 0.43.
For GHISIMVHYLFVSTHSSQED, the amyloid nucleation score was 4.46 ± 0.13.
SVFQVCFWFKYKRR gave an amyloid nucleation score of 0.201 ± 0.43.
In the case of YIYNWRYN, the amyloid nucleation score is reported as 1.71 ± 0.54.
In the case of LSSFMAAGVSLMCNTFLIWH, the amyloid nucleation score is reported as 0.729 ± 0.51.
With RDLDSSILNNFFDICTFWNK the amyloid nucleation score was -0.305 ± 0.5.
For INLGVMWGVPTELLVCNF, the amyloid nucleation score was “inactive”.
